Assay results taken from US20250327097A1, “ORGANISMS PRODUCING LESS CROTONIC ACID” (Global Bioenergies, priority 2021, published 2025).
Where a chain is given by its changes, count along the chain named. Names may count otherwise.

B1: I283T-P284D-i284aP-N287P-S322T-Q365I-N388M-E421V-C430N-L432F-L434W-S436N-H461T-dG462-A463T (protein)
chain: MFLKSLREQINLLKRQGDLRIINRPVDSYLEAAAIIRRSTETKAPVPLMTNIKGYPGCSIVGGLAALSSNPEYPLSRVAMSLGLSTTASAQSIVQYLIDGLKKTPYLPVEIDSNSAPCKQNILRGEDASLAHFPIPQVHQHDGNRYVNTWGVFIVESPDGQWCNWSIQRVQYLNDRQMIALVFPSQHISDIWEEWVKIGKPMPYALVQGCEPIVPYIAGLPLLERNVNEAEYIGALYGKGIEVVKCETHDLRVPASSEVVIEGYFAITREGVEGPFGEFAGYTDNEPSLQPILSITAISWQDDPIWPVVAEGKPVDEYHTCTGIGDAAAIQNVLLTANLPVSFVWVPLYSACHLMIVSINRHWRITHPDLTSEQLTKKVGDVIHQTRMSIKLPKIVVLDDDVDPADTESLLWALATRIHPVRKRYFYESNIFPWLNCYSEEERHNRKGKRVIIDALLPENTGTISSFDYAYPDDIKQRVLMHWETDFSHD
B2: I283T-P284D-i284aP-N287P-S322T-Q385T-N388M-E421V-C430N-L432F-L434W-S436N-H461T-dG462-A463T (protein)
chain: B1 chain with I365Q, Q385T
B3: I283T-P284D-i284aP-N287P-S322T-Q385S-N388M-E421V-C430N-L432F-L434W-S436N-H461T-dG462-A463T (protein)
chain: B1 chain with I365Q, Q385S
B4: I283T-P284D-i284aP-N287P-S322T-H384G-N388M-E421V-C430N-L432F-L434W-S436N-H461T-dG462-A463T (protein)
chain: B1 chain with I365Q, H384G
B5: I283T-P284D-i284aP-N287P-S322T-H384L-N388M-E421V-C430N-L432F-L434W-S436N-H461T-dG462-A463T (protein)
chain: B1 chain with I365Q, H384L
B6: I283T-P284D-i284aP-E286A-N287P-S322T-N388M-E421V-C430N-L432F-L434W-S436N-H461T-dG462-A463T (protein)
chain: B1 chain with E286A, I365Q
B7: I283T-P284D-i284aP-N287P-S322T-Q385L-N388M-E421V-C430N-L432F-L434W-S436N-H461T-dG462-A463T (protein)
chain: B1 chain with I365Q, Q385L
B8: I283T-P284D-i284aP-N287P-L289R-S322T-N388M-E421V-C430N-L432F-L434W-S436N-H461T-dG462-A463T (protein)
chain: B1 chain with L289R, I365Q
B9: I283T-P284D-i284aP-N287P-S322T-Q385G-N388M-E421V-C430N-L432F-L434W-S436N-H461T-dG462-A463T (protein)
chain: B1 chain with I365Q, Q385G
B10: L223Y-I283T-N285P-N287T-Q290E-S322T-N388M-K394R-C430A-i430aG-L432F-L434W-S436N-dG462 (protein)
chain: MFLKSLREQINLLKRQGDLRIINRPVDSYLEAAAIIRRSTETKAPVPLMTNIKGYPGCSIVGGLAALSSNPEYPLSRVAMSLGLSTTASAQSIVQYLIDGLKKTPYLPVEIDSNSAPCKQNILRGEDASLAHFPIPQVHQHDGNRYVNTWGVFIVESPDGQWCNWSIQRVQYLNDRQMIALVFPSQHISDIWEEWVKIGKPMPYALVQGCEPIVPYIAGLPLYERNVNEAEYIGALYGKGIEVVKCETHDLRVPASSEVVIEGYFAITREGVEGPFGEFAGYTPPETSLEPILSITAISWQDDPIWPVVAEGKPVDEYHTCTGIGDAAAIQNVLLTANLPVSFVWVPLYSACHLMIVSINRHWRQTHPDLTSEQLTKKVGDVIHQTRMSIKLPRIVVLDDDVDPADTESLLWALATRIHPERKRYFYESAIFPWLNCYSEEERHNRKGKRVIIDALLPENHGAISSFDYAYPDDIKQRVLMHWETDFSHD
B11: L223Y-I283T-N285P-N287T-Q290E-S322T-N388M-K394R-C430A-i430aL-L432F-L434W-S436N-dG462 (protein)
chain: B10 chain
B12: L223Y-I283T-N285P-N287T-Q290E-S322T-N388M-K394R-C430A-i430aN-L432F-L434W-S436N-dG462 (protein)
chain: B10 chain
B13: I283T-N285P-N287T-Q290E-S322T-N388M-S389H-K394R-C430A-i430aG-L432F-L434W-S436N-I453L-dG462 (protein)
chain: B10 chain with Y223L, S389H, I453L
B14: L222V-E224P-I283T-N285P-N287T-Q290E-S322T-N388M-K394R-C430A-i430aG-L432F-L434W-S436N-dG462 (protein)
chain: B10 chain with L222V, Y223L, E224P
B15: I283T-N285P-N287T-Q290E-S322T-N388M-K394R-C430A-i430aG-L432F-L434W-S436N-C437L-dG462 (protein)
chain: B10 chain with Y223L, C437L
B16: H141C-I283T-N285P-N287T-Q290E-S322T-I330V-N388M-S389H-K394R-C430A-i430aG-L432F-L434W-S436N-dG462 (protein)
chain: B10 chain with H141C, Y223L, I330V, S389H
B17: E224A-I283T-N285P-N287T-Q290E-S322T-N388M-S389H-K394R-C430A-i430aG-L432F-L434W-S436N-dG462 (protein)
chain: B10 chain with Y223L, E224A, S389H
B18: E224P-I283T-N285P-N287T-Q290E-S322T-N388M-S389H-K394R-C430A-i430aG-L432F-L434W-S436N-dG462 (protein)
chain: B10 chain with Y223L, E224P, S389H
B19: I283T-N285P-N287T-Q290E-S322T-N388M-S389H-K394R-C430A-i430aG-L432F-L434W-S436N-dG462 (protein)
chain: B10 chain with Y223L, S389H
B20: H141C-I283T-N285P-N287T-Q290E-S322T-N388M-S389H-K394R-C430A-i430aG-L432F-L434W-S436N-dG462 (protein)
chain: B10 chain with H141C, Y223L, S389H
B21: I283T-N285P-N287T-Q290E-S322T-N388M-K394R-C430A-i430aG-L432F-L434W-S436N-V451S-dG462 (protein)
chain: B10 chain with Y223L, V451S
B22: I283T-N285P-N287T-Q290E-S322T-I330V-N388M-K394R-C430A-i430aG-L432F-L434W-S436N-dG462 (protein)
chain: B10 chain with Y223L, I330V
B23: I283T-N285P-N287T-Q290E-S322T-I330V-N388M-S389H-K394R-C430A-i430aG-L432F-L434W-S436N-dG462 (protein)
chain: B10 chain with Y223L, I330V, S389H
B24: H141C-I283T-N285P-N287T-Q290E-S322T-N388M-K394R-C430A-i430aG-L432F-L434W-S436N-dG462 (protein)
chain: B10 chain with H141C, Y223L
B25: L223Y-I283T-N285P-N287T-Q290E-S322T-N388M-K394R-C430A-L432F-L434W-S436N-C437L-dG462 (protein)
chain: B10 chain with C437L
B26: E224P-I283T-N285P-N287T-Q290E-S322T-N388M-K394R-C430A-i430aG-L432F-L434W-S436N-dG462 (protein)
chain: B10 chain with Y223L, E224P
B27: I283T-N285P-N287T-Q290E-S322T-I330V-N388M-S389H-K394R-C430A-i430aG-L432F-L434W-S436N-V451S-dG462 (protein)
chain: B10 chain with Y223L, I330V, S389H, V451S
B28: L223Y-I283T-N285P-N287T-Q290E-S322T-N388M-K394R-C430A-i430aG-L432F-L434W-S436N-C437L-dG462 (protein)
chain: B10 chain with C437L
B29: L222V-I283T-N285P-N287T-Q290E-S322T-N388M-K394R-C430A-i430aG-L432F-L434W-S436N-dG462 (protein)
chain: B10 chain with L222V, Y223L

Test system: 3-methylcrotonic acid
Format: biochemical, Yersinia frederiksenii
Set-up: key: “+” representing a low increase in activity; “++++” representing a high increase in activity

Molecule | Activity relative to WT
B1 | ++++
B2 | ++++
B3 | ++++
B4 | ++++
B5 | ++++
B6 | ++++
B7 | ++++
B8 | ++++
B9 | ++++
B10 | ++++
B11 | ++++
B12 | ++++
B13 | ++++
B14 | ++++
B15 | ++++
B16 | ++++
B17 | ++++
B18 | ++++
B19 | ++++
B20 | ++++
B21 | ++++
B22 | ++++
B23 | ++++
B24 | ++++
B25 | ++++
B26 | ++++
B27 | ++++
B28 | ++++
B29 | ++++
